# Target: T1, Syntaxin 1a (mouse, UniProt O35526 1-288)
# T1 construct: also called STX1a; STX 1a
# Assay: Co-IP with anti-STX1a antibody from mouse cortical synaptosomes, Western blot
# T1 sequence (O35526 whole entry): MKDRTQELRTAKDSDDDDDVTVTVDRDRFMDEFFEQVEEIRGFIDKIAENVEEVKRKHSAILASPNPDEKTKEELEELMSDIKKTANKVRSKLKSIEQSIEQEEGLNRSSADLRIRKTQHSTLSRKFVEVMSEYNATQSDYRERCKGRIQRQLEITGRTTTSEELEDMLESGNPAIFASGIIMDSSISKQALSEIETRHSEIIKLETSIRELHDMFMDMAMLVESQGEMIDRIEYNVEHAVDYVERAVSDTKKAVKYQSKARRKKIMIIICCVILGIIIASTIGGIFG
binder,measurement,value
"c-Jun N-terminal Kinase isoform 1 (JNK1) (enzyme, mouse, UniProt Q91Y86 1-384, looked up, Lower 46 kDa band of the JNK signal in the non-immunoprecipitated control; also called lower band, 46 kDa) MSRSKRDNNFYSVEIGDSTFTVLKRYQNLKPIGSGAQGIVCAAYDAILERNVAIKKLSRPFQNQTHAKRAYRELVLMKCVNHKNIIGLLNVFTPQKSLEEFQDVYIVMELMDANLCQVIQMELDHERMSYLLYQMLCGIKHLHSAGIIHRDLKPSNIVVKSDCTLKILDFGLARTAGTSFMMTPYVVTRYYRAPEVILGMGYKENVDLWSVGCIMGEMVCHKILFPGRDYIDQWNKVIEQLGTPCPEFMKKLQPTVRTYVENRPKYAGYSFEKLFPDVLFPADSEHNKLKASQARDLLSKMLVIDASKRISVDEALQHPYINVWYDPSEAEAPPPKIPDKQLDEREHTIEEWKELIYKEVMDLEERTKNGVIRGQPSPLAQVQQ",binding result,no binding

# Reference: patent US20170128524A1 (published 2017)
